# Test results from patent US20140363441A1 (priority 2013, published 2014).
# “And” between values parts separate entries of the source, which are not always exact repeats. Equal entries are not always repeated. “Also recorded” adds a separate entry of the source.
# Columns and labels:
# H5N1 (A/Vietnam/1203/04) [1] = tested on: H5N1 (A/Vietnam/1203/04); design: species or system balb/c mice; settings: mouse, in vivo
# H5N1 (A/Vietnam/1203/04) [2] = tested on: H5N1 (A/Vietnam/1203/04); design: species or system balb/c mice; settings: mouse, in vivo; remark: listed apart in the source
# [3] = biological target: influenza A/Puerto Rico/8/34 (PR8) virus particles (M2 protein on the virion) (influenza A virus H1N1 A/Puerto Rico/8/34) (UniProt P06821); test: surface plasmon resonance, Fab fragment on influenza virus
# [4] = biological target: influenza A/Puerto Rico/8/34 (PR8) virus particles (M2 protein on the virion) (influenza A virus H1N1 A/Puerto Rico/8/34) (UniProt P06821); test: affinity of FAb fragments on whole PR8 virus
# [5] = biological target: M2 protein of influenza A/Hong Kong/483/1997 (H5N1), expressed on cells (influenza A virus H5N1 A/Hong Kong/483/97)
# HVIR1 = test: peptide ELISA, mAb 5 µg/mL
Molecule,MFI [5],also measured
CCOC(=O)C1=C[C@@H](OC(CC)CC)[C@H](NC(C)=O)[C@@H](N)C1 [oseltamivir],,survival rate (H5N1 (A/Vietnam/1203/04) [1]): extinction of the population prior to the end of the therapy; percentage of weight remaining (H5N1 (A/Vietnam/1203/04) [2]): completely protected; also recorded: retained more weight
ch14C2 Fab fragment,,Kd [3]: 4 µM; koff [3]: 0.0018 s⁻¹; kon [3]: 500 M⁻¹ s⁻¹; Kd [4]: 4 µM; koff [4]: 0.00286 s⁻¹; kon [4]: 500 M⁻¹ s⁻¹
"3136_G05 (antibody, V domains shown) VH: QVQLQESGPGLVKPSETLSLTCSVSGGSISSDFWSWIRQPPGKGLEWIGYVYNRGSTKYSPSLKSRVTISADMSKNQFSLNMSSVTAADTAVYYCAKNGRSSTSWGIDVWGKGTTVTVSS VL: DIQMTQSPSSLSASVGDRLTITCRASQSISTYLHWYQQKPGKAPKLLIYAASSLQSGVPSRFSGSRSGTDFTLTISSLQPDDFATYYCQQSYSPPLTFGPGTKVDMK",109 MFI,
"3248_P18 (antibody, V domains shown) VH: QVQLQESGPGLVKPSETLSLTCTVSGGSISAYHWSWIRQPPGKGLEWIGHIFDSGSTYYNPSLKSRVTISLDASKNQLSLRLTSVTASDTAIYYCARPLGSRYYYGMDVWGQGTTVTVSS VL: DIQMTQSPSSLSASVGDRVTITCRASQSISRYLNWYQQKPGKAPKLLIYGASTLQNGAPSRFSGSGSGTDFTLTISSLQPEDSATYLCQQSYSVPAFGGGTKVEVK",967 MFI,
"3253_P10 (antibody, V domains shown) VH: QVQLQESGPGLLKPSDTLALTCTVSGGSITSDYWSWIRQPPGRGLDWIGFFYNGGSTKYNPSLKSRVTISADTSKNQLSLKLTSVTAADTGVYYCARHDAKFSGSYYVASWGQGTRVTVSS VL: DIQMTQSPSSLSASVGDRVTISCRASQSISTYLNWYQQQPGKAPKVLISGATDLQSGVPSRFSGSGSGTDFTLTISSLQPEDFATYYCQQSYNTPLIFGQGTKLEIK",43 MFI,
"3243_J07 (antibody, V domains shown) VH: QVQLQESGPGLLKPSDTLALTCTVSGGSITSDYWSWIRQPPGRGLDWIGFFYNGGSTKYNPSLKSRVTISADTSKNQLSLKLTSVTAADTGVYYCARHDVKFSGSYYVASWGQGTRVTVSS VL: DIQMTQSPSSLSASVGDRVTISCRASQSISTYLNWYQQQPGKAPKVLISGATNLQSGVPSRFSGSGSGTDFTLTISSLQPEDFATYYCQQSYNTPLIFGQGTKLEIK",131 MFI,
"3244_I10 (antibody, V domains shown) VH: QVQLQESGPGLLKPSDTLALTCTVSGGSITSDYWSWIRQPPGRGLDWIGFFYNGGSTKYNPSLKSRVTISADTSKNQLSLKLTSVTAADTGVYYCARHDAKFSGSYYVASWGQGTRVTVSS VL: DIQMTQSPSSLSASVGDRVTISCRASQSISTYLNWYQQQPGKAPKVLIFGATNLQSGVPSRFSGSGSGTDFTLTISSLQPEDFATYYCQQSYNTPLIFGQGTKLEIK",434 MFI,
"8I10 (TCN-032) (antibody, V domains shown) VH: QVQLQESGPGLVKPSETLSLTCTVSGSSISNYYWSWIRQSPGKGLEWIGFIYYGGNTKYNPSLKSRVTISQDTSKSQVSLTMSSVTAAESAVYFCARASCSGGYCILDYWGQGTLVTVS VL: DIQMTQSPSSLSASVGDRVTITCRASQNIYKYLNWYQQRPGKAPKGLISAASGLQSGVPSRFSGSGSGTDFTLTITSLQPEDFATYYCQQSYSPPLTFGGGTRVEIK",754 MFI and 1080 MFI,ELISA A450 (HVIR1): 0.11
"3259_J21 (antibody, V domains shown) VH: QVQLQESGPRVVRPSETLSLTCTVSGGSISSYNWIWIRQPPGKGLEWIGHIYDYGRTFYNSSLQSRPTISVDASKNQLSLRLTSVTASDTAVYYCARPLGILHYYAMDLWGQGTTVTVSS VL: DIQMTQSPLSVSVSVGDRVTIACRASQSIDKFLNWYQQKPGKAPKLLIYGASNLHSGAPSRFSASGSGTDFTLTITNIQTEDFATYLCQQSFSVPAFGGGTKVEIK",1670 MFI,
"3260_D19 (antibody, V domains shown) VH: DMQLVESGGGLVPPGGSLRLSCAASGFSVSDNYINWVRQAPGKGLDWVSVFYSADRTSYADSVKGRFTVSSHDSKNTVYLQMNSLRAEDTAVYYCARVQKSYYGMDVWGQGTTVTVSS VL: GIQMTQSPSSLSASVGDRVTITCRASQSISRYLNWYLQKPGKAPKLLISGASSLQSGVPSRFSGTGSGTEFTLTISSLQPEDFATYYCQQTFSIPLFGQGTKVEIK",846 MFI,
"3242_P05 (antibody, V domains shown) VH: DMQLVESGGGLVPPGGSLRLSCAASGFSVSDNYINWVRQAPGKGLDWVSVFYSADRTSYADSVKGRFTVSSHDSKNTVYLQMNSLRAEDTAVYYCARVQKSYYGMDVWGQGTTVTVSS VL: GIQMTQSPSSLSASVGDRVTITCRASQSISRYLNWYLQKPGKAPKLLISGASSLQSGVPSRFSGTGSGTEFTLTISSLQPEDFATYYCQQTFSIPLFGQGTKVEIK",596 MFI,
"23K12 (TCN-031) (antibody, V domains shown) VH: EVQLVESGGGLVQPGGSLRISCAASGFTVSSNYMSWVRQAPGKGLEWVSVIYSGGSTYYADSVKGRFSFSRDNSKNTVFLQMNSLRAEDTAVYYCARCLSRMRGYGLDVWGQGTTVTVS VL: DIQMTQSPSSLSASVGDRVTITCRTSQSISSYLNWYQQKPGKAPKLLIYAASSLQSGVPSRFSGSGSGTDFTLTISGLQPEDFATYYCQQSYSMPAFGQGTKLEIK",,ELISA A450 (HVIR1): 0.21
"3139_P23 (antibody, V domains shown) VH: QVQLQESGPRLVKPSESLSLTCTVSGGSISNSFWGWIRQPPGEGLEWIGYVYNSGNTKYNPSLKSRVTISRDTSKSQLYMKLRSVTAADTAVYYCARHDDASHGYSISWGHGTLVTVSS VL: DIQMTQSPSSLSASVGDRVTITCRASQTISTYLNWYQQKSGKAPKLLIYAASGLQSGVPSRFSGSGSGTDFTLTISSLQPEDFATYFCQQSYNTPLTFGQGTKVEIK",110 MFI,
"3241_G23 (antibody, V domains shown) VH: QVQLQQSGPGLVKPSQTLSLTCTVSGGPVSGGGYSWNWIRQRPGQGLEWVGFMFHSGSPRYNPTLKSRITISVDTSKNLVSLKLSSVTAADTAVYFCARVGQMDKYYAMDVWGQGTTVTVSS VL: DIQMTQSPSSLSSSVGDRVTITCRASQSIGAYVNWYQQKAGKAPQVLIFGASNLQSGVPSRFSGSGSGTDFTLTISSLQPEDFATYFCQQTYSTPITFGQGTRLEIK",1700 MFI,
"3252_C13 (antibody, V domains shown) VH: QVQLQESGPGLVKPSETLSLTCTVSGASISSDYWSWIRLPPGKGLEWIGYIYNRGSTKYTPSLKSRVTISLDTAENQFSLRLRSVTAADTAIYYCARHVGGHTYGIDYWGQGTLVTVSS VL: DIQMTQSPSSLSASVGDRVTITCRASQSISNYLNWYQHKPGEAPKLLNYAASSLQSGVPSRFSASGSGTDFTLTISSLQPEDFATYYCQQSYNTPITFGQGTRLEIK",449 MFI,
"3255_J06 (antibody, V domains shown) VH: QVQLQESGPGLVKPSETLSLTCTVSGASISSDYWSWIRLPPGKGLEWIGYIYNRGSTKYTPSLKSRVTISLDTAENQFSLRLRSVTAADTAVYYCARHVGGHTYGIDYWGQGTLVTVSS VL: DIQMTQSPSSLSASVGDRVTITCRASQSISNYLNWYQHKPGEAPKLLNYAASSLQSGVPSRFSASGSGTDFTLSISGLQPEDFATYYCQQSYNTPITFGPGTRLEIK",442 MFI,
"3362_B11 (antibody, V domains shown) VH: QVQLQASGPGLVKPSETLSLTCTVSGDSITSGAYYWTWIRQHPGKGLEWIGYIYYSGNTYYNPSLKSRVTISLDTSKNQFSLKVNSVTAADTAVYYCARAASTSVLGYGMDVWGQGTTVTVSS VL: DIQMTQSPSSLSASVGDRVTITCRASQSISRYLNWYQQEPGKAPKLLVYAASSLQSGVPSRFSGSGSGTDFTLTISSLQPEDFATYYCQQSYSTPLTFGQGTRLEIK",218 MFI,
"3420_I23 (antibody, V domains shown) VH: QVQLQESGPGLVKPSETLSVTCKVSGDSISSYSWSWIRQPPGKGLEWVGYLYYSGSTKYNPSLKSRTTISVDTSTNQLSLKLSFVTAADTAVYFCARTGSESTTGYGMDVWGQGTTVTVSS VL: DIQMTQSPSSLSASVGDRVTITCRASQSISTYLNWYQQKPGKAPKLLIYAASSLHSGVPSRFSGSGSGTDFALTISSLQPEDFATYYCQQSYSPPITFGQGTRLEIK",112 MFI,
"3244_H04 (antibody, V domains shown) VH: EVQLVESGGGLVQPGGSLRLSCTASGLSVSSTYMNWVRQAPGKGLEWVSVFYSETRTYYADSVKGRFTVSRHNSNNTLYLQMNSLRAEDTAVYYCARVQRLSYGMDVWGQGTTVTVSS VL: DIQMTQSPSSLSASVGDRVTITCRASQSISTYLNWYQKRPGKAPKLLVYGASSLQSGVPSRFSGSGSGTDFTLTIASLQPEDSAVYYCQQTYSIPLFGQGTRLEIK",963 MFI,
"3245_O19 (antibody, V domains shown) VH: EVQLVESGGGLVQPGGSLRLSCTASGLSVSSTYMNWVRQAPGKGLEWVSVFYSETRTYYADSVKGRFTVSRHNSNNTLYLQMNSLRVEDTAVYYCARVQRLSYGMDVWGQGTTVTVSS VL: DIQMTQSPSSLSASVGDRVTITCRASQSISTYLNWYQKRPGKAPKLLVYGASTLQSGVPSRFSGSGSGTDFTLTIASLQPEDSATYYCQQTYSIPLFGQGTRLEIK",919 MFI,
